Source: US20230050972A1 (MOMENTA PHARMACEUTICALS, published 2023)

Columns and labels:
[1] = biological target: T1, recombinant mouse α11β1 (mouse, UniProt P61622 23-1141; P09055 21-728, limits assumed); experiment: ELISA on recombinant mouse α11β1
T1 construct: also called murine α11β1
Protocol: (§1) 0.25 μg/mL of target antigen (recombinant human or mouse α11β1) was plated in a 96-well plate over night at 4° C. Plates were washed (PBS with 0.1% Tween-20), blocked (PBS with 2% BSA and 0.05% Tween-20) for 1 hour at room temperature and incubated with a range of antibody concentrations for 1 hour at room temperature. Subsequently, plates were washed and incubated with biotinylated anti-rabbit/mouse/human IgG in a 1:1000 dilution buffer and incubated for 1 hour at room temperature. After washing the plates, Streptavidin HRP was added at 1:200 in dilution buffer and incubated for 1 hour at room temperature. Ultra TMB ELISA substrate solution was added and the plates incubated for 5 minutes on a plate shaker. The reaction was stopped by adding stop solution to each well and plates were read at 450 nm.

[2] = biological target: T2, recombinant human α11β1 (human, UniProt Q9UKX5 23-1141; P05556 21-728); experiment: ELISA on recombinant human α11β1
T2 construct: Coated in ELISA; ELISA and SPR material treated as one molecule; also called HIS-tagged human α11β1; integrin alpha 11 beta 1
Protocol: as §1

[3] = biological target: T3, in-house generated I domain of α11β1 (human, UniProt Q9UKX5 159-349, limits assumed); experiment: binding to isolated I domain
T3 construct: domain: I domain; also called human α11β1 I domain; α11β1 I Domain
T3 sequence (looked up): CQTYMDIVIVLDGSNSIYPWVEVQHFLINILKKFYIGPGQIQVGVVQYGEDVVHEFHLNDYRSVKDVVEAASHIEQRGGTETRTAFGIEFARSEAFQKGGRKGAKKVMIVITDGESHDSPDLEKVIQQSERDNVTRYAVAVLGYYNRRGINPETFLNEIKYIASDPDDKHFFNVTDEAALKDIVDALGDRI

[4] = biological target: T4, α11β1 on human myofibroblasts (MF) (human, UniProt Q9UKX5 23-1188; P05556 21-798); experiment: FACS on human myofibroblasts
T4 construct: whole, on cells
Protocol: Human Pulmonary Fibroblasts (ScienCell) were cultured in complete Fibroblast Growth Medium (ScienCell) until 80% confluent in T-150 flasks. Cells were washed and harvested using Accutase. Cells were seeded into T-150 flasks at 7,500 cells/cm² in complete FGF and cultured for 72 hours. Cells were then washed and starved in serum reduced medium for 24 hours. After starvation, cells were treated with TGFβ-1 (R&D Systems) for 72 hours. Cells were harvested using Accutase and seeded in 96-well conical bottom plates. Cells were blocked with Heat Inactived Fetal Bovine Serum (Gibco) for 30 minutes at 4° C. Cells were then incubated with anti-α11 antibodies at the doses described in each figure for 30 minutes at 4° C. A human anti-α11 antibody (Creative BioLabs) was included as a positive control as well as the appropriate IgG isotype negative controls. Cells were washed twice and incubated with PE conjugated secondary antibodies specific to the IgG class of the anti-α11 antibodies being tested for 30 minutes at 4° C. Cells were washed twice and fixed in 1% PFA for 30 minutes. Cells were acquired on a FACS Verse […]. Data were analyzed by gating on single cells and determining the geometric Mean Fluorescence Intensity (gMFI) in the PE channel for each sample.

T2 sequence (Q9UKX5 23-1141 limits assumed, chain 1 of 2): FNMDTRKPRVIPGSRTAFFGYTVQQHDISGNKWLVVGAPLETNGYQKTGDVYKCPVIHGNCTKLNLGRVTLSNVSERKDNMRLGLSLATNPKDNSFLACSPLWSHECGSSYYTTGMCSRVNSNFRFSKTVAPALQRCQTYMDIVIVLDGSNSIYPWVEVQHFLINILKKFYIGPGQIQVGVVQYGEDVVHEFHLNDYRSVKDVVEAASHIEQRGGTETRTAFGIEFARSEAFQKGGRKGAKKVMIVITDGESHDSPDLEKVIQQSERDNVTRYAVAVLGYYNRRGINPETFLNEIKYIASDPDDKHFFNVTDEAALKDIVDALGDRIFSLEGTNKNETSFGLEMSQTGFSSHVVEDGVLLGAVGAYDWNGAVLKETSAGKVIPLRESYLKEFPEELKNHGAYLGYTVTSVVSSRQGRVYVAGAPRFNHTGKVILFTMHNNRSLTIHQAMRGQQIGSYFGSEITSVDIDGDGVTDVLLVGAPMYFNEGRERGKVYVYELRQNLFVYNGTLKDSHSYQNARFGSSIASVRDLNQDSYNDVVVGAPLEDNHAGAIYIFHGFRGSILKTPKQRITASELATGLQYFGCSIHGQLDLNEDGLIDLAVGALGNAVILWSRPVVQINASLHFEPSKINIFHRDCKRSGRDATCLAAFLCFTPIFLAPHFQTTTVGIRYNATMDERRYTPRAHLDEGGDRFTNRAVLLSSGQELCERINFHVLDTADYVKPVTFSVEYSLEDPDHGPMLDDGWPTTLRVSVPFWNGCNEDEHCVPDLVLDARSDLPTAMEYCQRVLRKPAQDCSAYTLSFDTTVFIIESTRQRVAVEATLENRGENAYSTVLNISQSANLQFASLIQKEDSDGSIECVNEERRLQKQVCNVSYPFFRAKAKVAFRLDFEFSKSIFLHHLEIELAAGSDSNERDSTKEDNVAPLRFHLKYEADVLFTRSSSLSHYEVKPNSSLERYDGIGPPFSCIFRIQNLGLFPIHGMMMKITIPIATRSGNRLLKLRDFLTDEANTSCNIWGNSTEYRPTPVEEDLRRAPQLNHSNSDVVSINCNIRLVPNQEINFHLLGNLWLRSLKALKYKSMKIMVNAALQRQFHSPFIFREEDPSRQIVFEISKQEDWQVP
T2 sequence (P05556 21-728 limits assumed, chain 2 of 2): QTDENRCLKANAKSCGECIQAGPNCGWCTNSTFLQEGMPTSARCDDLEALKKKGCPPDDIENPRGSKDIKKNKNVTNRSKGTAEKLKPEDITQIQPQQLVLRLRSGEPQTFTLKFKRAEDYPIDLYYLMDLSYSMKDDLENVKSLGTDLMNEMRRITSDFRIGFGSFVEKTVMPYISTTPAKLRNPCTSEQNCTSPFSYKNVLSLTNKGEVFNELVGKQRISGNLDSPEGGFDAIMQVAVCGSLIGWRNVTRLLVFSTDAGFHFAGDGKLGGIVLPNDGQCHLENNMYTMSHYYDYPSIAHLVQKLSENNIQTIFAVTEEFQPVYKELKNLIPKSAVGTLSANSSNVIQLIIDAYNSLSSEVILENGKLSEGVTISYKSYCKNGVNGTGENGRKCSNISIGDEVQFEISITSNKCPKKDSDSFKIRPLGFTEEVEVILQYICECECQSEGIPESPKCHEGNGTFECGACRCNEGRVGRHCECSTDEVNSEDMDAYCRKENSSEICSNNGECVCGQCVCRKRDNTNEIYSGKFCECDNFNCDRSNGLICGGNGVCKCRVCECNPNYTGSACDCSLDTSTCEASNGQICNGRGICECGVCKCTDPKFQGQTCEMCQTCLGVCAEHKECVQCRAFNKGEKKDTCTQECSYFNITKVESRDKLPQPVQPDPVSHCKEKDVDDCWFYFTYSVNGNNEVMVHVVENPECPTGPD
T4 sequence (Q9UKX5 23-1188, chain 1 of 2): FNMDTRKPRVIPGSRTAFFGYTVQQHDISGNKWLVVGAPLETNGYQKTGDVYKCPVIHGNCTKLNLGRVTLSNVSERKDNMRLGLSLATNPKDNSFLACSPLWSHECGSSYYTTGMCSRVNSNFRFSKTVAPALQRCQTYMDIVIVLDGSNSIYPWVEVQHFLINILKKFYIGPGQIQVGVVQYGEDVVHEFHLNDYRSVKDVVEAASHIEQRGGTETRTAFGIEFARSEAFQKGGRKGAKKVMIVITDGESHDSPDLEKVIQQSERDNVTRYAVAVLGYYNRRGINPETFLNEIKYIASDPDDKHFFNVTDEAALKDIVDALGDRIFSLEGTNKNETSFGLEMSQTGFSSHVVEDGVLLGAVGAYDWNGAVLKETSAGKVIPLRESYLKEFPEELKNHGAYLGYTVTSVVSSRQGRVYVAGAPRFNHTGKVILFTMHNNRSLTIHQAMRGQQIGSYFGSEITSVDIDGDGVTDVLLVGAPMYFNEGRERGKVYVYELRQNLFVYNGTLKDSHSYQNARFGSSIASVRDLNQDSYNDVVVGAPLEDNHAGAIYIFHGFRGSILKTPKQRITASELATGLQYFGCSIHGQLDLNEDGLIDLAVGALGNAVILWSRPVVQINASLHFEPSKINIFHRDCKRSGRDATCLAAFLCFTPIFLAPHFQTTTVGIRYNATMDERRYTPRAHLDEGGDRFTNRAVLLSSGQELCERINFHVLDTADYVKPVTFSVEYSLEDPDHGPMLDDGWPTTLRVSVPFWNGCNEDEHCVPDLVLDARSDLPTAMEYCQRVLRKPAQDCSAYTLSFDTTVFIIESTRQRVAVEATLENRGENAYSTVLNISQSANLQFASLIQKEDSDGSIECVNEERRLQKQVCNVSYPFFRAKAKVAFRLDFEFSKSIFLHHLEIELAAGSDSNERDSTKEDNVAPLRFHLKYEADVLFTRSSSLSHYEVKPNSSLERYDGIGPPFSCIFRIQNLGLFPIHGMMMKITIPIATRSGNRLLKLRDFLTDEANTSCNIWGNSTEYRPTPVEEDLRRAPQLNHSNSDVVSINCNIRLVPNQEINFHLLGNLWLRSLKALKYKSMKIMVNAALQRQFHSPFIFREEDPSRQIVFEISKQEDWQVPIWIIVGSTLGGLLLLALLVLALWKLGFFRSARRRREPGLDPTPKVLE
T4 sequence (P05556 21-798, chain 2 of 2): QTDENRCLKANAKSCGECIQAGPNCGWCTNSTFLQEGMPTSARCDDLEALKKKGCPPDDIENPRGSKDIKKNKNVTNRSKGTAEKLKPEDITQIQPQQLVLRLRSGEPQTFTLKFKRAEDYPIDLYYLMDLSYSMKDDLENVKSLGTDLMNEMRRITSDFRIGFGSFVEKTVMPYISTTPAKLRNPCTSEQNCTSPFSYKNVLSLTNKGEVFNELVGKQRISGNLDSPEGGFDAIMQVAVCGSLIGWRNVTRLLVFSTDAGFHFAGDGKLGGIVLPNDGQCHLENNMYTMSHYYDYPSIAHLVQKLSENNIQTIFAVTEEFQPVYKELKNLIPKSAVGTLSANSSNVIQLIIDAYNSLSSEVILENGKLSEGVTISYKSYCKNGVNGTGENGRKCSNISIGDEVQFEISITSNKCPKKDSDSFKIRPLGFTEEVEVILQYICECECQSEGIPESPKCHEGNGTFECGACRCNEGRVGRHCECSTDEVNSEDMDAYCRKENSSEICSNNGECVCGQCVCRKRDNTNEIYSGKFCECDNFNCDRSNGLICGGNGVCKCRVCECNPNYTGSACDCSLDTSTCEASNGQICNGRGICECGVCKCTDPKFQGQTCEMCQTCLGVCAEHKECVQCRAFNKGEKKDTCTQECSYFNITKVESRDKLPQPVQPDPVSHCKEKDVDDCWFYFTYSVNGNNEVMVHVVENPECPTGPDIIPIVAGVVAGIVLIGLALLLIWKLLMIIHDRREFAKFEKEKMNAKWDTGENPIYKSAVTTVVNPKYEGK

B1: 6-M8 (antibody, V domains shown)
VH: QVQLQQPGAELVMPGASVKLSCKASGYTFTNYWMHWVKQRPGQGLEWIGEIDPSDSYTNYNQKFKGKATLTVDKSSSTAYMQLSSLTSEDSAVYYCTRQGSTYAWGQGTSVTVSS
VL: DIVMTQAAFSNPVTLGTSASISCRSSKSLLHSNGITYLYWYLQKPGQSPQLLIYQMSNLASGVPDRFSSSGSGTDFTLRISRVEAEDVGVYYCAQNLELPPTFGGGTKLEIK
notes: mouse hybridoma IgG
B1: no binding [1]; binds [2]; no binding [3].

B2: 18E10F10 (antibody, V domains shown)
VH: EVQLVESGGGLVQPGRSLKLSCAASRFTFSDYNMAWVRQAPKKGLEWVATIYHDDSGSYYRDSVKGRFTISRNNAKSTLYLQMDSLRSEDMATYYCARHNNGFDYWGQGVMVTVAS
VL: DVVMTQTPVSLPVRLGGQASISCRSSQSLVHSNGNTYLHWYLQKPGQSPQLLINRVSNRFSGVPDRFSGSGSGTDFTLKINRVEPEDLGDYYCLQSTHFPLTFGSGTKLETK
notes: rat hybridoma mAb
B2: no binding [1]; binds [2]; no binding [3].

B3: 3-G5 (antibody, V domains shown)
VH: QVQLQQSGAELARPGASVKLSCKASGYTFTSYGISWVKQRTGQGLEWIGEIFPRSSNTYYNEKFKGKATLTADKSSSTVYMEFRSLTSEDSAVYFCAREGGLAWFAYWGQGTLVTVSA
VL: DVVMTQTPLTLSVTIGQPASISCKSSQSLLYTNGNTYLNWLLQRPGQSPKRLIYLVSKLDSGIPDRFSGSGSGTDFTLRISRVEAEDLGVYYCLQSTHFPFTFGSGTKLEIK
notes: mouse hybridoma IgG
B3: binds [1]; binds [2]; no binding [3].

B4: 9-B11 (antibody, V domains shown)
VH: QVQLQQPGAELVRPGTSVKLSCKASGYTFTSYWMHWVQQRPGQGLEWIGVIDPSDSYTNYNQKFKGKATLTVDTSSSSAYMQLSSLTSEDSAVYYCARDDVAMDYWGQGTSVTVSS
VL: DIVVTQSPASLAVSLGQRATISCRASESVDSYGNSFIHWYQQKPGQPPKLLIYRASNLKSGIPARFSGSGSRTDFTLTINPVEADDVATYYCQQSNEDPYTFGGGTKLEIK
notes: mouse hybridoma IgG
B4: no binding [1]; binds [2]; binds [4].

B5: 6-B21 (antibody, V domains shown)
VH: EVQLQQSGPELVKPGASVKISCKASGYTFTDYYMNWVKQSHGKSLEWIGDINPHNGGTSFIQKFKGKATLTVDKSSSTAYMELRSLTSEDSAVYYCAPLGRKEGFAYWGQGTLVTVSA
VL: DTVLTQSPASLVVSLGQRATISCRASKSVSTSGYSYMHWYQQKPGQPPKLLIYLASNLESGVPARFSGSGSGTAFTLNIHPVEEEDAATYYCQHSRELPYTFGGGTKLEIK
notes: mouse hybridoma IgG
B5: binds [1]; binds [2]; no binding [3].

B6: 6-P20 (antibody, V domains shown)
VH: EVQLQQSGPELVKPGASVKISCKASGYTFTDYYMNWVKQSHGRSLELIGDINPNNGGSNFNQKFRGKATLTVDKSSSTAYMELRSLTSEDSAIYYCARMGYWGQGTLVTVSA
VL: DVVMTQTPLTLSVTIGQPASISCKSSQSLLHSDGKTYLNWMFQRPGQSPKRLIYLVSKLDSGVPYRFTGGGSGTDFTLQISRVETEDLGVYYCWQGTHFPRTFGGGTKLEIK
notes: mouse hybridoma IgG
B6: no binding [1]; binds [2]; no binding [3].

B7: 10-F23 (antibody, V domains shown)
VH: QVTLKESGPGILQPSQTLSLTCSFSGFSLSTFAMGVGWIRQPSGKGLEWLAHIWWDDDKYYNPALKSRLTISKDTSKNHVFLKIANVDTADTATYYCARMPLTFYFDYWGQGTTLTVSS
VL: DVLLTQTPLSLPVSLGDQASISCRSSQSIVHSNGHTYLEWYLQKPGQSPKLLIYKVSNRFSGVPDRFSGSGSGTDFTLKISRVEAEDLGVYYCFQGSHVPFTFGGGTKLEIK
notes: mouse hybridoma IgG
B7: binds [1]; binds [2]; binds [4].

B8: 6-A12 (antibody, V domains shown)
VH: QVTLKESGPGILQPSQTLSLTCSFSGFSLRTFAMGVGWIRQPSGKGLEWLAHIWWDDDKYYNPALKSRLTISKDTSKNQVFLKIANVDTADTATYYCARMPLTFYFDYWGQGTTLTVSS
VL: DVLMTQTPLSLPVSLGDQASISCRSSQSIVHSNGNTYLEWYLQKPGQSPKLLIYKVSTRFSGVPDRFSGSGSGTDFTLKISRVEAEDLGVYYCFQGSHVPFTFGGGTKLEIK
notes: mouse hybridoma IgG
B8: binds [1]; binds [2]; binds [4].

B9: 6-O12 (antibody, V domains shown)
VH: EVKLEESGGGLVQPGGSMKLSCAASGFTFSDAWMDWVRQSPEAGLEWVAEIRNKAHNPATYYAESVKGRFTISRDDSKSSVYLQMNSLRAEDTGIYYCTLVAPDAMDYWGQGTSVTVSS
VL: DIVMSLSPSSLAVSVGEKVTMSCKSSQSLLYSRNQKNYLAWYQQKPGQSPKLLIYWASTRASGVPDRFTGSGSGTDFTLTISSVKAEDLAVYYCQQYYSYPYTFGGGTKLEIK
notes: mouse hybridoma IgG
B9: no binding [1]; binds [2]; no binding [3].

B10: 7-O8 (antibody, V domains shown)
VH: EVQLQQSGPELVKPGASVKMSCKASGYTFTDYYIHWVKQKPGQGLEYIGEIYPGSGNTYYNGKFRGKATLTADKSSSTAYMQLSSLTSEDSAVYFCGSGYFDYWGQGTTLTVSS
VL: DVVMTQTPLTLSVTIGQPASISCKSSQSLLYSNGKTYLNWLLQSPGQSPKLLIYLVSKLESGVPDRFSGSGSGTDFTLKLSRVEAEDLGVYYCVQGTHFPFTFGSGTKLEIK
notes: mouse hybridoma IgG
B10: binds [1]; binds [2]; binds [4].

B11: 8H8E9 (antibody, V domains shown)
VH: QVQLKESGPGLVQPSQTLSLTCTVSGFSLTSNSVSWVRQAPGKGLEWMGAIWSGGSTDYNSALKSRLSISRDTSKSQVFLKMNSLQTEDTAIYFCTRSHWEPFDYWGQGVMVTVSS
VL: DIVMTQSPFSLAVSEGEMVTINCKSSQGLLSSGNQKNYLAWYQQRPGQSPKLLIYYASTRQSGVPDRFIGGGSGTDFTLTISDVQAEDLADYYCLQHYSYPPTFGSGTKLEIK
notes: rat hybridoma mAb
B11: no binding [1]; binds [2].

B12: 6E5C11 (antibody, V domains shown)
VH: QVQLRESGPGLVQPSQTLSLTCTVSGFSLTSNSVTWVRQPPGKGLEWMGAIWSDGSTDYNSTLKSRLSISRDTSKSQVFLKMSSLQTEDTAIYFCTRSHWEPFDYWGQGVMVTVSS
VL: DIVMTQSPLSLAVSEGETVTMNCKSSQSLFSSGNQKNYLAWYQQKPGQSPKLLIYYASTRQSGVPDRFIGSGSGTDFTLTISDVQTEDLADYYCLQHYNYPPTFGSGTKLEIK
notes: rat hybridoma mAb
B12: no binding [1]; binds [2].

B13: 10-K10 (antibody, V domains shown)
VH: EVQLQQSGPELVKPGASVKMSCKASGYTITDYYMMWLKQSHGKSLEWIGDINPYTGGTSYNQKFKGKATLTVDKSSSTAYMQLNSLTSEDSAVYYCARGAYWGQGTTLTVSS
VL: not shown
notes: mouse hybridoma IgG
B13: binds [1]; binds [2]; binds [4]. B13: no binding [3].

B14: 2-A3 (antibody, V domains shown)
VH: EVQLQQSGPELVKPGASVKMSCKASGYTFTDYYMMWVKQSHGKSLEWIGDINPYNGGSSYNPKFKGRATLTVDKSSSTAYMQLNSLTSEDSAVYYCARGTYWGQGTLVTVSA
VL: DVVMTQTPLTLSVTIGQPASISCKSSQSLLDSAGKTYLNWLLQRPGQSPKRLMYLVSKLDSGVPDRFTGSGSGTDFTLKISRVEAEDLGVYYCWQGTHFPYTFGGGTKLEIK
notes: mouse hybridoma IgG
B14: binds [1]; binds [2]; no binding [3].

B15: 6-A15 (antibody, V domains shown)
VH: EVQLQQSGPELVKPGASVKMSCKASGYTITDYYMMWLKQSHGKSLEWIGDINPYTGGTSYNQKFKGKATLTVDKSSSTAYLQLHSLTSEDSAVYYCARGAYWGQGTTLTVSS
VL: not shown
notes: mouse hybridoma IgG
B15: binds [1]; binds [2]; no binding [3].

B16: 10-L15 (antibody, V domains shown)
VH: QVQLQQSGPELVRPGASVKMSCKASGYTFTSYWMHWVKQRPGQGLEWIGMIDPSNSETWLNQKFKDKATLNVDKSSNTAYMQLSSLTSEDSAVYYCARYDGYYDYWGQGTTLTVSS
VL: NIVLTQSPASLAVSLGQRATISCRASESVDSYGNSFMHWYQQKPGQPPKLLIYLASNVESGVPARFSGSGSRTDFTLTIDPVEADDAATYYCQQNNEDPWTFGGGTKLEIK
notes: mouse hybridoma IgG
B16: binds [1]; binds [2].
